Measured values reported in PMC11784139.
Changes are numbered by the printed parent chain.

Tests used:
Assay in all cases: EMSA
Conditions in all cases: EMSA: 5 mM Tris-HCl pH 7.5, 0.1 mM EDTA, 5 mM MgCl2, 10 mM KCl, 0.2 mM DTT, 30 C, 30 min, native PAGE in 0.5x TBE; MST: 50 mM PBS pH 7.2-7.4, temperature not …
[1] = test system: T1, 6xHis-APR1 T306L T306L (Acinetobacter venetianus RAG-1), ORF:d17a4b85
T1 sequence: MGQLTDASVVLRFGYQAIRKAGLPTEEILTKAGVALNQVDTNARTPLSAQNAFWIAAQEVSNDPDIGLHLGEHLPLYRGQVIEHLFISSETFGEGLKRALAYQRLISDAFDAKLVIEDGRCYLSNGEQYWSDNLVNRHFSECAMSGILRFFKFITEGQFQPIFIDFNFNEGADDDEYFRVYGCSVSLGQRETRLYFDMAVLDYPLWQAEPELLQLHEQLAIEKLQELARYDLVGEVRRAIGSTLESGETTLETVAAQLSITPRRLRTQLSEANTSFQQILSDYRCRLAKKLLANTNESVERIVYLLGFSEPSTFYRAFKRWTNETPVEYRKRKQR

[2] = test system: T2, 6xHis-APR1 V303E V303E (Acinetobacter venetianus RAG-1), ORF:d17a4b85
T2 sequence: T1 sequence with V303E, L306T

[3] = test system: T3, 6xHis-APR1 F318S F318S (Acinetobacter venetianus RAG-1), ORF:d17a4b85
T3 sequence: T1 sequence with L306T, F318S

[4] = test system: T4, 6xHis-APR1 F314S F314S (Acinetobacter venetianus RAG-1), ORF:d17a4b85
T4 sequence: T1 sequence with L306T, F314S

[5] = test system: T5, MBP-APR1 L265S L265S (Acinetobacter venetianus RAG-1), ORF:d17a4b85
T5 sequence: T1 sequence with L265S, L306T

AGCCTACCTGATGATCAAATTGGAAAGGCGCAAATTATAGTCAATTTATTTGAAATTTACAAGACGCTCTCTTAGCAAAGCTTGTACAGATGAATTGGAAAAAACTGTCAGACAATCCTCATTTTTTTTTAACAAAAGAAGCAGAATAGTGTTGTCAGTTTGGTCAATCAACGTTAATCTAAAATTATTGTTTATTGTCACAATAACGTATCTACAGGGAAGGGCACTGC (double strand) [apR1 promoter]
binding [1]: binds
binding [2]: no binding
binding [3]: no binding
binding [4]: no binding
binding [5]: no binding
